Assay results as given in publication doi:10.1101/2022.12.01.518327 (bioRxiv, 2022).
Where a chain is given by its changes, count along the chain named. Names and notes keep the numbering of the source.

Columns and labels:
[1] = target: T1, mouse LEP-R extracellular domain (mLEP-RECD) (mouse, UniProt P48356 22-839); assay: SEC-MALLS
T1 sequence (looked up): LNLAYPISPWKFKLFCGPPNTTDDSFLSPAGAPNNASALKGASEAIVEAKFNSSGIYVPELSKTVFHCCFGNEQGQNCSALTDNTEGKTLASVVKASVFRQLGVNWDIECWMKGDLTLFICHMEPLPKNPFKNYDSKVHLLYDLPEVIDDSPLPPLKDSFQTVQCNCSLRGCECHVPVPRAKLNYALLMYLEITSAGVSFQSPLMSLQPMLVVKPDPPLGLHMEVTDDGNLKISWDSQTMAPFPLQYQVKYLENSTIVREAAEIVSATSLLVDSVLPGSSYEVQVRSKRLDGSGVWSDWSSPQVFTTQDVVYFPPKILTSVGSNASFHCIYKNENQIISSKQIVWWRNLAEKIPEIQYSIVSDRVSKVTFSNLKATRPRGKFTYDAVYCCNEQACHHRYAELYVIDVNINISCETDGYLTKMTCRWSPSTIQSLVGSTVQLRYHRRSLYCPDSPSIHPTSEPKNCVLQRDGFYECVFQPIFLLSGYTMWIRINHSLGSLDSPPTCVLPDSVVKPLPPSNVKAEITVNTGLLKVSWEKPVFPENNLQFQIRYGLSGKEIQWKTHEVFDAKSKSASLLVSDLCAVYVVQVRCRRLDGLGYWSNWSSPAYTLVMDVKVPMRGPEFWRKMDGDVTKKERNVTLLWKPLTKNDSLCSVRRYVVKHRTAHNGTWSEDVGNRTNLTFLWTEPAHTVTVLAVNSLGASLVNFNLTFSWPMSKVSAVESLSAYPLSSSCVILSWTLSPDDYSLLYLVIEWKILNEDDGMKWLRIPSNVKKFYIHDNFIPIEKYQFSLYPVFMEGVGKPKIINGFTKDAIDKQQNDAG

[2] = target: T1, mouse LEP-R extracellular domain …; assay: SEC-MALLS + AUC
[3] = target: T2, human LEP-R extracellular domain (hLEP-RECD), glycosylated (human, UniProt P48357 22-839); assay: SEC-MALLS
T2 sequence (looked up): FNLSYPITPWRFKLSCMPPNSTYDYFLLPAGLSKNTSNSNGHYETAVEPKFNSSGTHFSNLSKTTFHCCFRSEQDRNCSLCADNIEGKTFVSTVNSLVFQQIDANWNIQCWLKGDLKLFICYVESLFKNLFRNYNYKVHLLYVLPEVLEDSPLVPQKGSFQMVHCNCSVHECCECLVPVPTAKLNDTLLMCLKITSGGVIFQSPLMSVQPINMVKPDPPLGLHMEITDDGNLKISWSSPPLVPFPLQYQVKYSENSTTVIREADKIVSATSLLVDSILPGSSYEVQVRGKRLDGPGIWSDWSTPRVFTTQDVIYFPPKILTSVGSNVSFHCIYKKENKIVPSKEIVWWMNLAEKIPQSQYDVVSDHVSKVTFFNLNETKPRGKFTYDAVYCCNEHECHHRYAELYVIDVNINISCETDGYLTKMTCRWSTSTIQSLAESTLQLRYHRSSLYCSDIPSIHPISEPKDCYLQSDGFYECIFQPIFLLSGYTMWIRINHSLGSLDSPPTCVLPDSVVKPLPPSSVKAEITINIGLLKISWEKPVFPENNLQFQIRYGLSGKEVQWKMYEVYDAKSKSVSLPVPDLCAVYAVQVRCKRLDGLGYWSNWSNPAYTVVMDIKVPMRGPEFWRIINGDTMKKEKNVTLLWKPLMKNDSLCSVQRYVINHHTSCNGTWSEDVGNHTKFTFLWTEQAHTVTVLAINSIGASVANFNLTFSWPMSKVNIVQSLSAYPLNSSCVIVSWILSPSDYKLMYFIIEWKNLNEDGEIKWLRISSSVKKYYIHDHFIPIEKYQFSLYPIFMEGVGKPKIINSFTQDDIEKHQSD

[4] = target: T3, mouse LEP-R Ig-CRH2 fragment, residues 328-633, C602S (mouse, UniProt P48356 328-633, C602S); assay: SEC-MALLS
T3 sequence (looked up): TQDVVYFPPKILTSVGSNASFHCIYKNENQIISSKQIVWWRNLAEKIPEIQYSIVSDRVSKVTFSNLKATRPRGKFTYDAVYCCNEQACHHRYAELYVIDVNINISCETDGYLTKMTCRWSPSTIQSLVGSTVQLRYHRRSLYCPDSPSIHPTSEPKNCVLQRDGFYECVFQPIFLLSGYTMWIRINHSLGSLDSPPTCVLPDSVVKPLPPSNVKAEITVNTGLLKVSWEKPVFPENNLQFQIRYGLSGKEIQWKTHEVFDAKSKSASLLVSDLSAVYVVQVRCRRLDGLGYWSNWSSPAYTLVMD

[5] = target: T3, mouse LEP-R Ig-CRH2 fragment, residues …; assay: crystal structure
[6] = target: T1, mouse LEP-R extracellular domain …; assay: BLI
[7] = target: T1, mouse LEP-R extracellular domain …; assay: cryo-EM structure

B1: murinized human Leptin I85V/M89L/G132D/G139L (ligand, UniProt P41159 22-167, looked up)
chain: VPIQKVQDDTKTLIKTIVTRINDISHTQSVSSKQKVTGLDFIPGLHPILTLSKMDQTLAVYQQVLTSLPSRNVIQISNDLENLRDLLHVLAFSKSCHLPWASGLETLDSLDGVLEASLYSTEVVALSRLQGSLQDMLWQLDLSPGC
Does B1 bind [1]?
Result: binds

B2: mouse Leptin (mLeptin), wild type, as used in SEC-MALLS, AUC, BLI (in solution) and on cells (ligand, UniProt P41160 22-167, looked up)
chain: VPIQKVQDDTKTLIKTIVTRINDISHTQSVSAKQRVTGLDFIPGLHPILSLSKMDQTLAVYQQVLTSLPSQNVLQIANDLENLRDLLHLLAFSKSCSLPQTSGLQKPESLDGVLEASLYSTEVVALSRLQGSLQDILQQLDVSPEC
Which results are given for B2?
binding result [2]: binds; binding result [3]: binds; binding result [4]: binds

B3: tag-less mouse Leptin refolded from E. coli inclusion bodies (ligand, UniProt P41160 22-167, looked up)
chain: B2 chain
Does B3 bind [5]?
Result: binds

B4: in vitro biotinylated mouse Leptin (ligand, UniProt P41160 22-167, looked up)
chain: B2 chain
modifications: biotin (NHS-PEG4-biotin, in vitro)
Does B4 bind [6]?
Result: binds

B5: mouse Leptin refolded from E. coli, N-terminal His-tag removed with TEV protease (ligand, UniProt P41160 22-167, looked up)
chain: B2 chain
Does B5 bind [7]?
Result: binds

B6: Leptin a1 antagonist (141ST142/AA), as used with mLEP-RECD (ligand, UniProt P41160 22-167, looked up)
chain: B2 chain with S120A, T121A
Which “stoichiometry N” value [2] does the source give for B6 here?
Its value is 1.

B7: mouse Leptin a2 antagonist (60LDFI63/AAAA) (ligand, UniProt P41160 22-167, looked up)
chain: B2 chain with L39A, D40A, F41A, I42A
B7 was tested. Which “stoichiometry N” value [2] did it give?
Its value is 1.
